Source: patent EP4703372A1
Like-named read-outs stand apart in the source and are kept apart here.

Columns and labels:
[1] = molecular target: Humira, which included human κ light chain subgroup 1 (Vκ1) (manufactured by Eisai Co., Ltd.); assay: ratio of ELISA A450 on Humira (Vκ1) to A450 on Human PCSK9 antibody (Vκ4)
[2] = molecular target: Humira, which included human κ light chain subgroup 1 (Vκ1) (manufactured by Eisai Co., Ltd.); assay: ratio of ELISA A450 on Humira (Vκ1) to A450 on Human PDGFR alpha antibody (Vκ3)
[3] = molecular target: Human PCSK9 antibody, which included human κ light chain subgroup 4 (Vκ4) (manufactured by R&D Systems, Inc.); assay: ELISA, antibody immobilised, binder at 50 ug/mL, anti-6-His detection (repeats Table 17)
[4] = molecular target: Human PDGFR alpha antibody, which included human κ light chain subgroup 3 (Vκ3) (manufactured by R&D Systems, Inc.); assay: as above
[5] = molecular target: Humira, which included human κ light chain subgroup 1 (Vκ1) (manufactured by Eisai Co., Ltd.); assay: as above
[6] = molecular target: Humira, which included human κ light chain subgroup 1 (Vκ1) (manufactured by Eisai Co., Ltd.); assay: ratio of ELISA A450 on Humira (Vκ1) to A450 on Human PCSK9 antibody (Vκ4) (repeats Table 17)
[7] = molecular target: Human PCSK9 antibody, which included human κ light chain subgroup 4 (Vκ4) (manufactured by R&D Systems, Inc.); assay: ELISA, antibody immobilised (10 ug/mL), binder at 50 ug/mL, anti-6-His detection, blank subtracted
[8] = molecular target: Human PDGFR alpha antibody, which included human κ light chain subgroup 3 (Vκ3) (manufactured by R&D Systems, Inc.); assay: as above
[9] = molecular target: Humira, which included human κ light chain subgroup 1 (Vκ1) (manufactured by Eisai Co., Ltd.); assay: as above
[10] = molecular target: Humira, which included human κ light chain subgroup 1 (Vκ1) (manufactured by Eisai Co., Ltd.); assay: ratio of ELISA A450 on Humira (Vκ1) to A450 on Human PDGFR alpha antibody (Vκ3) (repeats Table 17)
[11] = molecular target: Herceptin, which included human κ light chain subgroup 1 (Vκ1) (manufactured by Chugai Pharmaceutical Co., Ltd.); assay: ELISA, antibody immobilised (10 ug/mL), binder at 50 ug/mL, anti-6-His detection, blank subtracted
[12] = molecular target: Human CTLA4 antibody, which included human κ light chain subgroup 3 (Vκ3) (manufactured by R&D Systems, Inc.); assay: as above
[13] = molecular target: Herceptin, which included human κ light chain subgroup 1 (Vκ1) (manufactured by Chugai Pharmaceutical Co., Ltd.); assay: as above; remark: listed apart in the source
[14] = molecular target: Human CTLA4 antibody, which included human κ light chain subgroup 3 (Vκ3) (manufactured by R&D Systems, Inc.); assay: as above; remark: listed apart in the source

Absorbance ratio (Vκ1/Vκ4) [1]	Absorbance ratio (Vκ1/Vκ3) [2]	absorbance at 450 nm (absorbance at 450 nm) [3]	absorbance at 450 nm (absorbance at 450 nm) [4]	absorbance at 450 nm (absorbance at 450 nm) [5]	Absorbance ratio (Vκ1/Vκ4) [6]	absorbance at 450 nm (absorbance at 450 nm) [7]	absorbance at 450 nm (absorbance at 450 nm) [8]	absorbance at 450 nm (absorbance at 450 nm) [9]	Absorbance ratio (Vκ1/Vκ3) [10]	absorbance at 450 nm (absorbance at 450 nm) [11]	absorbance at 450 nm (absorbance at 450 nm) [12]	absorbance at 450 nm (absorbance at 450 nm) [13]	absorbance at 450 nm (absorbance at 450 nm) [14]	Substance
0.9	1.2	0.91	0.71	0.82	0.9	0.91	0.71	0.82	1.2	–	–	–	–	C3 immunoglobulin-binding domain of Protein L derived from Finegoldia magna (FpL_C3), wild-type
–	–	–	–	–	–	0.77	0.21	–	–	0.92	0.32	0.86	0.07	FpL_C3KR (all lysine residues of FpL_C3 substituted with arginine) (designed binder)
–	–	–	–	–	–	–	–	–	–	–	–	–	0.98	FpL_C3KR_K38E (K(R)38E introduced into FpL_C3KR) (designed binder)
